# Measurements published in US20190092819A1 (published 2019).
# Target: Recombinant human DSG2 protein (desmoglein 2), soluble (human) (UniProt Q14126)
# Experiment: method not named at this place; presumably the SPR of FIG. 7 (noDD forms)
# Chain of Recombinant human DSG2 protein (desmoglein 2), soluble (human) (Q14126 50-609 limits assumed): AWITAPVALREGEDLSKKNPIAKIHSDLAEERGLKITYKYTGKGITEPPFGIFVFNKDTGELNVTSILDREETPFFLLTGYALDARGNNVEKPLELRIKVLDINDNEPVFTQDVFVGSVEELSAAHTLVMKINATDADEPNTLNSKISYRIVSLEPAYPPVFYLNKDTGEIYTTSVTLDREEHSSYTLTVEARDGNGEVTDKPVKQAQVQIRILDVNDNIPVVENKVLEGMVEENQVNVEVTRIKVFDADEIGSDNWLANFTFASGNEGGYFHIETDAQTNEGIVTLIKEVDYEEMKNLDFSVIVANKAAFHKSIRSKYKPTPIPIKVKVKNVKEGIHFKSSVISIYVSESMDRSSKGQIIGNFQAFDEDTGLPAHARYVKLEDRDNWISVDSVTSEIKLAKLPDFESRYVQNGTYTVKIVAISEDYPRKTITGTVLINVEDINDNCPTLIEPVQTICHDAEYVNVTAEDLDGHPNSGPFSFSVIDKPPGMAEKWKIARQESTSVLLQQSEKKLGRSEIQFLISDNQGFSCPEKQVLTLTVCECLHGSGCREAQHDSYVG
substance,measurement,value
JO-4 (dimeric affinity-enhanced Ad3 fiber knob mutant Y250F) (ligand),Kd,11.4 nM
